What was measured:
[1] = system: piglets; assay: Feeding test with piglets; format: in vivo, pigs; details: Positive control: 4-5.5 ppm fumonisin B1 in feed, no enzyme
Method: The test was performed in a test stable with 12 stalls for 10 animals each. The stable was equipped with a slatted floor, pan troughs and a computer-controlled feeding system. The automats were arranged along the stall walls. Every day, the stable climate was automatically recorded, and the temperature was set according to the standard recommendations for piglet breeding.
For this test, 120 mixed-sex weaned pigs (age: about 4 weeks, average setting weight: 8.21 kg) were used. Each piglet was earmarked and individually weighed. The 120 piglets were randomly distributed among 12 stalls. All piglets came from the Austrian Breeding Program ÖHYB (=(large white×landrace)×Pietrain).
Immediately upon weaning, the piglets were fed with a starter feed for two days, after this settling-in period the changeover to the test feed took place. Feeding was effected in two phases: Weaning phase days 1-14, breeding phase days 15-42. The test feed was mixed individually per stall via the spotmix feeding installation and allotted in dry form twice a day as a function of the number of piglets, weight development and feed consumption. Water was available ad libitum. The 12 stalls were divided into four different application groups at three repetitions each and received the following admixtures in the above-described feed: […]

[2] = Catalytic activity of HFB1 aminotransferase in E. coli lysate; format: biochemical; details: 25° C.; for degradation of the hydrolyzed fumonisin to 2-keto-HFB1: cosubstrate added (α-keto acid e.g. pyruvic acid, or oxalacetate); for reduction of the hydrolyzed FB1 concentration: no cosubstrate, 50 mM sodium phosphate buffer
Method: Sequences ID Nos. 18 and 24 were cloned using standard procedures and expressed in E. coli under the control of a bacteriophage T7 promoter. The bacterial cells were collected, resuspended in 50 mM sodium phosphate buffer and lyzed under ultrasonic action. Hydrolyzed fumonisin was added, and the samples were incubated at 25° C. Samples were taken at time intervals and analyzed by HPLC-MS/MS. No reduction of the hydrolyzed FB1 concentration was observed. […] This substance is totally harmless for mammals.

[3] = format: biochemical; details: corn mash after carboxylesterase treatment; FIG. 5
Method: Samples of corn mash for the production of bioethanol were taken and incubated at 30 to 65° C. under stirring, the degradation of fumonisin B1 having been investigated after the addition of 770 units of carboxylesterase ID No. 9 per cubic meter of mash under stirring (stirring time in minutes). Samples were inactivated by boiling-up after having been taken and subsequently centrifuged for analysis, and an aliquot of the supernatant was evaporated. The residue was taken up in 200 μl sample buffer containing C^13-labelled internal fumonisin standard, shaken for 1.5 min, centrifuged off, and then subjected to LC-MS-analysis.

| Molecule | respiratory problems observed [1] | Final weight (average, kg) ([1]; 42 days) [kg] | degradation of the hydrolyzed fumonisin to 2-keto-HFB1 [2] | reduction of the hydrolyzed FB1 concentration [2] | degradation of hydrolyzed fumonisin HFB1 [3] |
| --- | --- | --- | --- | --- | --- |
| CCCC[C@@H](C)[C@@H](OC(=O)C[C@@H](CC(=O)O)C(=O)O)[C@H](C[C@@H](C)C[C@H](O)CCCC[C@@H](O)C[C@H](O)[C@H](C)N)OC(=O)C[C@@H](CC(=O)O)C(=O)O [fumonisin B1] | almost half of the animals | 24.77 |  |  |  |
| aminotransferase ID No. 19: HFB1 aminotransferase encoded by fumI (sequence ID No. 18) (protein, listed as Sphingopyxis sp., Seq ID 19 (FumI)) MANGTRQKDLRERAERVIPGGMYGHESTRLLPPEFPQFFRRALGARIWDADEQPYIDYMCAYGPNLLGYRQSEIEAAADAQRLLGDTMTGPSEIMVNLAEAFVGMVRHADWAMFCKNGSDATSTAMVLARAHTGRKTILCAKGAYHGASPWNTPHTAGILASDRVHVAYYTYNDAQSLSDAFKAHDGDIAAVFATPFRHEVFEDQALAQLEFARTARKCCDETGALLVVDDVRAGFRVARDCSWTHLGIEPDLSCWGKCFANGYPISALLGSNKARDAARDIFVTGSFWFSAVPMAAAIETLRIIRETPYLETLIASGAALRAGLEAQSQRHGLELKQTGPAQMPQIFFADDPDFRIGYAWAAACLKGGVYVHPYHNMFLSAAHTVDDVTETLEATDRAFSAVLRDFASLQPHPILMQLAGA |  |  | complete degradation | No reduction | completely degraded |
| aminotransferase ID No. 25: HFB1 aminotransferase encoded by sequence ID No. 24 (protein, listed as Caulobacter sp., Seq ID 25) MELSRQRDQALRERAQAVIPGGMYGHESTYLMPEGTPQFFSRGKGARLWDADGNEYVDYMCAYGPNLLGYGFEPVEAAAAAQQARGDTLTGPSEVMVQLAEDFVAQISHADWAMFCKNGTDATSMAMVIARAHTGRKTILCAKGAYHGAAPWCTPILAGTLPEDRAFVVYYDYNDAQSLVDAFEAHQDDVAAIFATPHRHEVFSDQIDPDPEYAASVRALCDKSGALLVVDEVRAGFRIARDCSWAKIGVAPDLSTWGKCFANGYPISAVLGGEKVRSAAKAVYVTGSFWFSATPMAAAVETLKQIRETDYLERINAAGTRLREGLQQQAAHNGFTLRQTGPVSMPQVLFEEDPDFRVGYGWVRECLKRGVYFSPYHNMFLSAAHSEADLAKTLAATGDAFVELRAKLPSLEIHQPLLALRAA |  |  | complete degradation | No reduction |  |
